Measured values published in publication doi:10.1101/2020.02.29.971473.

Target: human PCNA, purified (immobilised on the GLC chip) (human), P12004
Test: SPR
Conditions: remark: other sources report otherwise

Chain of human PCNA, purified (immobilised on the GLC chip) (human), P12004 (P12004 whole entry): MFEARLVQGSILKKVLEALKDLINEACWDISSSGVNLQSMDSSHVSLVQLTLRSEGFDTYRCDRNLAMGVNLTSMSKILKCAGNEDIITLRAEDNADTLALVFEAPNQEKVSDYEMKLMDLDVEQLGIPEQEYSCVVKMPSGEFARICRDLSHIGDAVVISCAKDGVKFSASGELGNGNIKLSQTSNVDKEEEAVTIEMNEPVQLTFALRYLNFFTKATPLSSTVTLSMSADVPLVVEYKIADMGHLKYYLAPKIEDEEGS

Kd: 100 nM
response units: 90 RU
B1: p125 (PolD1), catalytic subunit of human DNA polymerase delta, purified, P28340 1-1107 (natural protein)
chain: MDGKRRPGPGPGVPPKRARGGLWDDDDAPRPSQFEEDLALMEEMEAEHRLQEQEEEELQSVLEGVADGQVPPSAIDPRWLRPTPPALDPQTEPLIFQQLEIDHYVGPAQPVPGGPPPSRGSVPVLRAFGVTDEGFSVCCHIHGFAPYFYTPAPPGFGPEHMGDLQRELNLAISRDSRGGRELTGPAVLAVELCSRESMFGYHGHGPSPFLRITVALPRLVAPARRLLEQGIRVAGLGTPSFAPYEANVDFEIRFMVDTDIVGCNWLELPAGKYALRLKEKATQCQLEADVLWSDVVSHPPEGPWQRIAPLRVLSFDIECAGRKGIFPEPERDPVIQICSLGLRWGEPEPFLRLALTLRPCAPILGAKVQSYEKEEDLLQAWSTFIRIMDPDVITGYNIQNFDLPYLISRAQTLKVQTFPFLGRVAGLCSNIRDSSFQSKQTGRRDTKVVSMVGRVQMDMLQVLLREYKLRSYTLNAVSFHFLGEQKEDVQHSIITDLQNGNDQTRRRLAVYCLKDAYLPLRLLERLMVLVNAVEMARVTGVPLSYLLSRGQQVKVVSQLLRQAMHEGLLMPVVKSEGGEDYTGATVIEPLKGYYDVPIATLDFSSLYPSIMMAHNLCYTTLLRPGTAQKLGLTEDQFIRTPTGDEFVKTSVRKGLLPQILENLLSARKRAKAELAKETDPLRRQVLDGRQLALKVSANSVYGFTGAQVGKLPCLEISQSVTGFGRQMIEKTKQLVESKYTVENGYSTSAKVVYGDTDSVMCRFGVSSVAEAMALGREAADWVSGHFPSPIRLEFEKVYFPYLLISKKRYAGLLFSSRPDAHDRMDCKGLEAVRRDNCPLVANLVTASLRRLLIDRDPEGAVAHAQDVISDLLCNRIDISQLVITKELTRAASDYAGKQAHVELAERMRKRDPGSAPSLGDRVPYVIISAAKGVAAYMKSEDPLFVLEHSLPIDTQYYLEQQLAKPLLRIFEPILGEGRAEAVLLRGDHTRCKTVLTGKVGGLLAFAKRRNCCIGCRTVLSHQGAVCEFCQPRESELYQKEVSHLNALEERFSRLWTQCQRCQGSLHEDVICTSRDCPIFYMRKKVRKDLEDQEQLLRRFGPPGPEAW
